# From publication PMC6860424, “Structural analysis of the manganese transport regulator MntR from Bacillus halodurans in apo and manganese bound forms” (PLoS ONE, 2019)
# B1: manganese transport regulator MntR from Bacillus halodurans (natural protein, UniProt Q9K943 1-139, looked up)
# chain: MPTPSMEDYLERIYLLIEEKGYARVSDIAEALEVHPSSVTKMVQKLDKSDYLVYERYRGLILTAKGKKIGKRLVYRHDLLEDFLKMIGVDSDHIYEDVEGIEHHLSWDAIDRIGDLVQYFQEDPSRLNDLREVQKKNEE
# notes: MntR homologue BH2807 of Bacillus halodurans, a protein of 139 amino acids; gene amplified from genomic DNA into pET-28b(+) NdeI/XhoI; subunit described as residues 1-71 (domain 1) and 72-139 (domain 2); Homodimer in both crystal forms; also called BhMntR; BH2807; source: E. coli BL21(DE3) Star pLysS, purified (Ni IMAC, Superdex 200 gel filtration)
# Biological target: the molecule itself
# Assay: crystal structure; apo BhMntR; sitting-drop vapor diffusion at 296 K, 0.1 M sodium/potassium phosphate pH 6.2, 0.4 M magnesium formate; 2.3 Å; two subunits in the asymmetric unit
protein,measurement,value
B1,stoichiometry N,2
